Data published in the supplement of paper PMC7125110.
± gives the standard error. For part of these data: This sample holds only a part of the variants without activity.

B1: glmS ribozyme (parent)
chain: AUAAAAGCGCCAGAACUACAGAAAUGUAGUUGACGAGGAGGAGGUUUAUCGAAUUUUCGGCGGAUGCCUCCAAA

Experiments:
Conditions in all cases: with glucosamine-6-phosphate
[1] = variants of: B1; assay: self-cleavage kobs at 40 uM GlcN6P; higher = faster cleavage; RNA array
How it was run: (§1)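 Glucosamine-6-phosphate in HEPES/KCl/Mg(OAc)2 buffer, at 40 μM to 10 mM, was flowed over barcoded ribozyme variants transcribed in situ by E. coli RNA polymerase on sequenced MiSeq chips. Tracking was through a hybridised Cy3 probe at 37 °C. kobs, kcat and KM came from exponential decay fits and weighted Michaelis–Menten fits of normalised per-tile medians.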

[2] = variants of: B1; assay: self-cleavage kobs at 640 uM GlcN6P; higher = faster cleavage; RNA array
How it was run: as §1

[3] = variants of: B1; assay: self-cleavage kobs at 2500 uM GlcN6P; higher = faster cleavage; RNA array
How it was run: as §1

[4] = variants of: B1; assay: self-cleavage kobs at 160 uM GlcN6P; higher = faster cleavage; RNA array
How it was run: as §1

[5] = variants of: B1; assay: kcat; higher = faster cleavage; RNA array
How it was run: as §1

[6] = variants of: B1; assay: self-cleavage kobs at 10000 uM GlcN6P; higher = faster cleavage; RNA array
How it was run: as §1

[7] = variants of: B1; assay: KM; higher = weaker cofactor use; RNA array
How it was run: as §1

G9U G60U
self-cleavage kobs at 40 uM GlcN6P [1]: < 1e-05 s⁻¹
self-cleavage kobs at 640 uM GlcN6P [2]: < 1e-05 s⁻¹
self-cleavage kobs at 2500 uM GlcN6P [3]: < 1e-05 s⁻¹

C11A G44C
self-cleavage kobs at 40 uM GlcN6P [1]: < 1e-05 s⁻¹
self-cleavage kobs at 160 uM GlcN6P [4]: < 1e-05 s⁻¹
self-cleavage kobs at 640 uM GlcN6P [2]: < 1e-05 s⁻¹
self-cleavage kobs at 2500 uM GlcN6P [3]: < 1e-05 s⁻¹

G38U G44U U69G C70G
self-cleavage kobs at 40 uM GlcN6P [1]: < 1e-05 s⁻¹

G35U G37C U56G
self-cleavage kobs at 40 uM GlcN6P [1]: < 1e-05 s⁻¹
self-cleavage kobs at 640 uM GlcN6P [2]: < 1e-05 s⁻¹
self-cleavage kobs at 2500 uM GlcN6P [3]: < 1e-05 s⁻¹

A6U G37U
kcat [5]: < 1e-05 s⁻¹
self-cleavage kobs at 160 uM GlcN6P [4]: < 1e-05 s⁻¹
self-cleavage kobs at 2500 uM GlcN6P [3]: < 1e-05 s⁻¹

C16A A36C C71A
kcat [5]: < 1e-05 s⁻¹
self-cleavage kobs at 10000 uM GlcN6P [6]: < 1e-05 s⁻¹

A36U
KM [7]: 584 ± 170 µM

A14G U31C
KM [7]: 891 ± 450 µM
self-cleavage kobs at 40 uM GlcN6P [1]: 0.0012 ± 0.00019 s⁻¹
self-cleavage kobs at 160 uM GlcN6P [4]: 0.00337 ± 0.00062 s⁻¹
self-cleavage kobs at 640 uM GlcN6P [2]: 0.00963 ± 0.0011 s⁻¹
self-cleavage kobs at 2500 uM GlcN6P [3]: 0.0154 ± 0.0043 s⁻¹
self-cleavage kobs at 10000 uM GlcN6P [6]: 0.05 ± 0.013 s⁻¹

C8G A15G A39G C67G
self-cleavage kobs at 40 uM GlcN6P [1]: < 1e-05 s⁻¹

U49C C70A
self-cleavage kobs at 40 uM GlcN6P [1]: < 1e-05 s⁻¹

A12C A20U C67G
self-cleavage kobs at 40 uM GlcN6P [1]: 9.99e-05 ± 2.5e-05 s⁻¹
self-cleavage kobs at 10000 uM GlcN6P [6]: 0.00115 ± 0.00024 s⁻¹

U47C U69A
kcat [5]: 0.000275 ± 6.6e-05 s⁻¹
self-cleavage kobs at 40 uM GlcN6P [1]: 2.9e-05 ± 1.4e-05 s⁻¹
self-cleavage kobs at 640 uM GlcN6P [2]: 5.97e-05 ± 2.2e-05 s⁻¹
self-cleavage kobs at 2500 uM GlcN6P [3]: 0.000178 ± 5.8e-05 s⁻¹
self-cleavage kobs at 10000 uM GlcN6P [6]: 0.00023 ± 3.1e-05 s⁻¹

G9A C50G C70G
self-cleavage kobs at 40 uM GlcN6P [1]: 9.06e-05 ± 2.7e-05 s⁻¹
self-cleavage kobs at 10000 uM GlcN6P [6]: 4.63e-05 ± 1.4e-05 s⁻¹

G41C G59U
self-cleavage kobs at 40 uM GlcN6P [1]: < 1e-05 s⁻¹
self-cleavage kobs at 640 uM GlcN6P [2]: < 1e-05 s⁻¹
self-cleavage kobs at 2500 uM GlcN6P [3]: < 1e-05 s⁻¹
self-cleavage kobs at 10000 uM GlcN6P [6]: < 1e-05 s⁻¹

A15C G29A
kcat [5]: 0.0015 ± 0.00014 s⁻¹
KM [7]: 6270 ± 870 µM
self-cleavage kobs at 640 uM GlcN6P [2]: 0.000137 ± 2.3e-05 s⁻¹
self-cleavage kobs at 2500 uM GlcN6P [3]: 0.000429 ± 9.7e-05 s⁻¹
self-cleavage kobs at 10000 uM GlcN6P [6]: 0.000924 ± 0.00012 s⁻¹

G9C A39G
self-cleavage kobs at 40 uM GlcN6P [1]: < 1e-05 s⁻¹
self-cleavage kobs at 2500 uM GlcN6P [3]: < 1e-05 s⁻¹
self-cleavage kobs at 10000 uM GlcN6P [6]: < 1e-05 s⁻¹

A36C G51U
KM [7]: 10.4 ± 3.3 µM

G13C A52C G62U
self-cleavage kobs at 40 uM GlcN6P [1]: < 1e-05 s⁻¹
self-cleavage kobs at 10000 uM GlcN6P [6]: < 1e-05 s⁻¹

G35A U47G
self-cleavage kobs at 40 uM GlcN6P [1]: < 1e-05 s⁻¹
self-cleavage kobs at 160 uM GlcN6P [4]: < 1e-05 s⁻¹
self-cleavage kobs at 640 uM GlcN6P [2]: < 1e-05 s⁻¹
self-cleavage kobs at 2500 uM GlcN6P [3]: < 1e-05 s⁻¹
self-cleavage kobs at 10000 uM GlcN6P [6]: < 1e-05 s⁻¹

G32A U54A C61G
self-cleavage kobs at 40 uM GlcN6P [1]: < 1e-05 s⁻¹
self-cleavage kobs at 640 uM GlcN6P [2]: < 1e-05 s⁻¹
self-cleavage kobs at 10000 uM GlcN6P [6]: < 1e-05 s⁻¹

G41C C58G
self-cleavage kobs at 40 uM GlcN6P [1]: < 1e-05 s⁻¹
self-cleavage kobs at 160 uM GlcN6P [4]: < 1e-05 s⁻¹
self-cleavage kobs at 640 uM GlcN6P [2]: < 1e-05 s⁻¹
self-cleavage kobs at 10000 uM GlcN6P [6]: < 1e-05 s⁻¹

U54C G60A
self-cleavage kobs at 40 uM GlcN6P [1]: < 1e-05 s⁻¹

G37U A39G A42U C70U
self-cleavage kobs at 40 uM GlcN6P [1]: < 1e-05 s⁻¹

C8A C50G A53U C67U
self-cleavage kobs at 40 uM GlcN6P [1]: 0.000239 ± 5.6e-05 s⁻¹
self-cleavage kobs at 640 uM GlcN6P [2]: 0.000168 ± 5.7e-05 s⁻¹
self-cleavage kobs at 2500 uM GlcN6P [3]: 0.000626 ± 0.00028 s⁻¹
self-cleavage kobs at 10000 uM GlcN6P [6]: 0.000304 ± 5e-05 s⁻¹

C34G A42C C71U
self-cleavage kobs at 40 uM GlcN6P [1]: < 1e-05 s⁻¹
self-cleavage kobs at 2500 uM GlcN6P [3]: < 1e-05 s⁻¹

G40A G59A
KM [7]: 1080 ± 65 µM

A36G G60U G66U
self-cleavage kobs at 40 uM GlcN6P [1]: < 1e-05 s⁻¹
self-cleavage kobs at 640 uM GlcN6P [2]: < 1e-05 s⁻¹
self-cleavage kobs at 2500 uM GlcN6P [3]: < 1e-05 s⁻¹
self-cleavage kobs at 10000 uM GlcN6P [6]: < 1e-05 s⁻¹

G9C C10U G37U
self-cleavage kobs at 40 uM GlcN6P [1]: < 1e-05 s⁻¹
self-cleavage kobs at 640 uM GlcN6P [2]: < 1e-05 s⁻¹

U31G A42U C50U C61G
self-cleavage kobs at 40 uM GlcN6P [1]: < 1e-05 s⁻¹
self-cleavage kobs at 10000 uM GlcN6P [6]: < 1e-05 s⁻¹

A12C A39C C67G
self-cleavage kobs at 40 uM GlcN6P [1]: < 1e-05 s⁻¹

A48C G51U C67U
self-cleavage kobs at 40 uM GlcN6P [1]: < 1e-05 s⁻¹
self-cleavage kobs at 10000 uM GlcN6P [6]: < 1e-05 s⁻¹

G29A A48G U49G G62C
self-cleavage kobs at 40 uM GlcN6P [1]: < 1e-05 s⁻¹
self-cleavage kobs at 160 uM GlcN6P [4]: < 1e-05 s⁻¹
self-cleavage kobs at 2500 uM GlcN6P [3]: < 1e-05 s⁻¹

C10G U31C G35U
self-cleavage kobs at 40 uM GlcN6P [1]: < 1e-05 s⁻¹
self-cleavage kobs at 10000 uM GlcN6P [6]: < 1e-05 s⁻¹

A23C
self-cleavage kobs at 40 uM GlcN6P [1]: 0.00185 ± 0.00044 s⁻¹
self-cleavage kobs at 160 uM GlcN6P [4]: 0.00277 ± 0.00082 s⁻¹
self-cleavage kobs at 640 uM GlcN6P [2]: 0.00459 ± 0.0012 s⁻¹
self-cleavage kobs at 2500 uM GlcN6P [3]: 0.0102 ± 0.0033 s⁻¹
self-cleavage kobs at 10000 uM GlcN6P [6]: 0.0549 ± 0.021 s⁻¹

G43U C67U C68U
kcat [5]: 4.99e-05 ± 2e-05 s⁻¹
self-cleavage kobs at 2500 uM GlcN6P [3]: 7.28e-05 ± 2.2e-05 s⁻¹
self-cleavage kobs at 10000 uM GlcN6P [6]: 3.53e-05 ± 1.7e-05 s⁻¹

U31C G41U U45G C70G
self-cleavage kobs at 40 uM GlcN6P [1]: 3.43e-05 ± 1.6e-05 s⁻¹
self-cleavage kobs at 10000 uM GlcN6P [6]: 0.000585 ± 0.00013 s⁻¹

G40C U45C
kcat [5]: 0.000403 ± 4.9e-05 s⁻¹
KM [7]: 2310 ± 570 µM
self-cleavage kobs at 640 uM GlcN6P [2]: 0.0001 ± 2.5e-05 s⁻¹
self-cleavage kobs at 2500 uM GlcN6P [3]: 0.000195 ± 3.4e-05 s⁻¹
self-cleavage kobs at 10000 uM GlcN6P [6]: 0.000344 ± 6.4e-05 s⁻¹

C34G G38U G40C C68A
self-cleavage kobs at 40 uM GlcN6P [1]: < 1e-05 s⁻¹
self-cleavage kobs at 10000 uM GlcN6P [6]: < 1e-05 s⁻¹

G29U G51U
KM [7]: 40.3 ± 12 µM

A33U G38U A42U U56C G63U
self-cleavage kobs at 40 uM GlcN6P [1]: < 1e-05 s⁻¹
self-cleavage kobs at 10000 uM GlcN6P [6]: < 1e-05 s⁻¹

U31A U45A
KM [7]: 813 ± 360 µM
self-cleavage kobs at 40 uM GlcN6P [1]: 0.000743 ± 0.0001 s⁻¹
self-cleavage kobs at 160 uM GlcN6P [4]: 0.00207 ± 0.00071 s⁻¹
self-cleavage kobs at 640 uM GlcN6P [2]: 0.00537 ± 0.0013 s⁻¹
self-cleavage kobs at 2500 uM GlcN6P [3]: 0.0106 ± 0.0024 s⁻¹
self-cleavage kobs at 10000 uM GlcN6P [6]: 0.0333 ± 0.01 s⁻¹

A14C G35C
kcat [5]: < 1e-05 s⁻¹
self-cleavage kobs at 40 uM GlcN6P [1]: < 1e-05 s⁻¹
self-cleavage kobs at 10000 uM GlcN6P [6]: < 1e-05 s⁻¹

G9C A14G
self-cleavage kobs at 40 uM GlcN6P [1]: < 1e-05 s⁻¹
self-cleavage kobs at 160 uM GlcN6P [4]: < 1e-05 s⁻¹
self-cleavage kobs at 640 uM GlcN6P [2]: < 1e-05 s⁻¹
self-cleavage kobs at 2500 uM GlcN6P [3]: < 1e-05 s⁻¹
self-cleavage kobs at 10000 uM GlcN6P [6]: < 1e-05 s⁻¹

A36G G41A
self-cleavage kobs at 40 uM GlcN6P [1]: < 1e-05 s⁻¹
self-cleavage kobs at 160 uM GlcN6P [4]: < 1e-05 s⁻¹
self-cleavage kobs at 640 uM GlcN6P [2]: < 1e-05 s⁻¹
self-cleavage kobs at 2500 uM GlcN6P [3]: < 1e-05 s⁻¹
self-cleavage kobs at 10000 uM GlcN6P [6]: < 1e-05 s⁻¹

A12G A36U C50G C70U C71U
self-cleavage kobs at 40 uM GlcN6P [1]: 0.000102 ± 4.6e-05 s⁻¹
self-cleavage kobs at 10000 uM GlcN6P [6]: 5.91e-05 ± 1.9e-05 s⁻¹

C11A C34A U47G
self-cleavage kobs at 40 uM GlcN6P [1]: < 1e-05 s⁻¹
self-cleavage kobs at 2500 uM GlcN6P [3]: < 1e-05 s⁻¹

A15G U54A
KM [7]: 508 ± 200 µM
self-cleavage kobs at 40 uM GlcN6P [1]: 0.000663 ± 0.00011 s⁻¹
self-cleavage kobs at 160 uM GlcN6P [4]: 0.00251 ± 0.00049 s⁻¹
self-cleavage kobs at 640 uM GlcN6P [2]: 0.006 ± 0.0015 s⁻¹
self-cleavage kobs at 2500 uM GlcN6P [3]: 0.00683 ± 0.0018 s⁻¹
self-cleavage kobs at 10000 uM GlcN6P [6]: 0.0333 ± 0.014 s⁻¹
